Patent US20130295102A1 (Novartis, published 2013)
Residue numbers refer to the chain shown, from its start. Blank lines part the entries; values can stand above or below the binder they belong to.

Legend:
Cynomolgus Factor P [1] = target: Cynomolgus Factor P (cynomolgus); assay: cell-based or functional assay
Human Factor P [2] = target: T1, Human Factor P (human, UniProt P27918 29-469); assay: cell-based or functional assay
Human Factor P [3] = target: T1, Human Factor P; assay: SET, solution equilibrium titration
Method: (§1) In SET, a constant amount of antibody is incubated with different concentrations of antigen until equilibrium is reached. The concentration of free antibody in the equilibrated solution is determined by applying the solution on an antigen coated MSD™ plate (Meso Scale Discovery™) followed by incubation with an ECL-labeled secondary antibody and measurement of signal intensity. At low antigen concentrations, a strong signal is achieved (high concentration of free antibody which binds to the antigen on the plate) whereas for high antigen concentration, the antibody is completely antigen-captured, resulting in a low signal. If a sufficient number of antigen concentrations in a matching range are available, the titration curve allows for a reasonable determination of the affinity, using the appropriate fit model. […] The constant concentration of antibody applied in the assay should be in the range of, or below, the KD (Table 4).
(§2) Human Factor P (Complement Technology cat#: A139) and Cyno Factor P purified from cyno serum (protocol adapted from Nakano, et al., (1986) J Immunol Methods 90:77-83) were coated on standard binding MSD plates (Meso-Scale Discovery, 384-well: MSD cat#: L21XA, 96-well: MSD cat#: L15XA) at 0.2-0.3 μg/ml in 25 μl PBS and incubated overnight at 4° C. Factor P inhibitors were diluted to a fixed concentration (1 pM or 10 pM) in incubation buffer (PBS with 2% BSA (Sigma cat#: A4503) and 1% Tween20 and 1% Triton-X (Sigma cat#: 234729)), and added to a serial dilution of Factor P (human or cyno) in incubation buffer. Samples were allowed to reach equilibrium by incubation at RT overnight. Plates were washed 3× in wash buffer (PBS with 0.05% Tween20), and blocked with 100 μl incubation buffer at RT for 2 hrs. Plates were washed 3× in wash buffer. Sample containing Factor P inhibitors and Factor P titration were added to the plate (25 μl), and incubated at RT for 15 min. Plates were washed 3× in wash buffer. 25 μl detection antibody was added (Anti-Human (Goat) Sulfo-TAG, 1:1000 in incubation buffer, MSD cat#: R32AJ-1), and incubated at RT for 60 min. Plates were washed 3× in wash buffer, and 50 μl of 1×MSD Read buffer T was added (with surfactant, MSD cat#: R92TC-1). Plates were read on a MSD Spector Imager 6000.

Human Factor P [4] = target: T1, Human Factor P; assay: Biacore SPR, captured Factor P
Cynomolgus Factor P [5] = target: T2, Cynomolgus Factor P (cynomolgus); assay: SET, solution equilibrium titration
T2 construct: Purified from cynomolgus serum for SET/Biacore; Factor P of cynomolgus serum in the functional assays; also called Cyno Factor P; cyno FP
Method: as §1, §2

Cynomolgus Factor P [6] = target: T2, Cynomolgus Factor P; assay: Biacore SPR, captured Factor P

T1 sequence (P27918 29-469 limits assumed): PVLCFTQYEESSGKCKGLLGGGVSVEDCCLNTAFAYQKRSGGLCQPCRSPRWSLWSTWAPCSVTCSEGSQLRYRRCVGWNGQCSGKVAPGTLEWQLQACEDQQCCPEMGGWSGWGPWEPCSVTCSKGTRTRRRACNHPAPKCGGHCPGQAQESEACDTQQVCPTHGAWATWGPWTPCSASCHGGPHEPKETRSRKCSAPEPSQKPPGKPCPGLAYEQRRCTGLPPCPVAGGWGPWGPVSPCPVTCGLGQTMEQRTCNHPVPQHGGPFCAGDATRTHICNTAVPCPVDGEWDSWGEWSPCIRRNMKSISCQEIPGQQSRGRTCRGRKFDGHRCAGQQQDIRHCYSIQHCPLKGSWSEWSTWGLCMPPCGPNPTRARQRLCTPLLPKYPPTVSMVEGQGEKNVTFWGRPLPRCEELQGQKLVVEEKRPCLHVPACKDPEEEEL

B1: NVS809 (Fab, V domains shown)
VH: EVQLVQSGAEVKKPGSSVKVSCKASGGTFSSYAISWVRQAPGQGLEWMGRIIPIFGTANYAQKFQGRVTITADESTSTAYMELSSLRSEDTAVYYCARHGGYYFDSWGQGTLVTVSS
VL: SYVLTQPPSVSVAPGKTARISCSGDNLGSKYVDWYQQKPGQAPVLVIYSDNNRPSGIPERFSGSNSGNTATLTISGTQAMDEADYYCATYDSSPRTEVFGGGTKLTVLG
Hemolytic assay IC50 (nM), 10% serum (Cynomolgus Factor P [1]): 12.8 nM
MAC Deposition, 20% Serum EC50 (Cynomolgus Factor P [1]): 5.9 nM
Hemolytic assay IC50 (nM), 10% serum (Human Factor P [2]): 12.1 nM
MAC Deposition, 20% Serum EC50 (Human Factor P [2]): 6.46 nM
Kd (Human Factor P [3]): 0.0042 nM
Kd (Human Factor P [4]): 0.0247 nM
koff (Human Factor P [4]): 0.000104 s⁻¹
kon (Human Factor P [4]): 4.25e+06 M⁻¹ s⁻¹

B3: NVS965-Q (Fab, V domains shown)
VH: B1 VH with S30Q, Y103S
VL: B1 VL
notes: NVS965 with heavy chain N30 replaced with glutamine
Hemolytic assay IC50 (nM), 10% serum (Cynomolgus Factor P [1]): 14.7 nM
MAC Deposition, 20% Serum EC50 (Cynomolgus Factor P [1]): 9.39 nM
Zymosan-C3b IC50 (nM), 10% serum (Cynomolgus Factor P [1]): 3.3 nM
Hemolytic assay IC50 (nM), 10% serum (Human Factor P [2]): 9.71 nM
MAC Deposition, 20% Serum EC50 (Human Factor P [2]): 15.4 nM
Zymosan-C3b IC50 (nM), 10% serum (Human Factor P [2]): 1.64 nM
Kd (Cynomolgus Factor P [5]): 0.201 nM
Kd (Human Factor P [3]): 0.301 nM
Kd (Cynomolgus Factor P [6]): 0.215 nM
koff (Cynomolgus Factor P [6]): 0.000594 s⁻¹
kon (Cynomolgus Factor P [6]): 2.77e+06 M⁻¹ s⁻¹
Kd (Human Factor P [4]): 0.138 nM
koff (Human Factor P [4]): 0.000366 s⁻¹
kon (Human Factor P [4]): 2.65e+06 M⁻¹ s⁻¹

B4: NVS804 (Fab, V domains shown)
VH: B1 VH with Y103I
VL: B1 VL
Hemolytic assay IC50 (nM), 10% serum (Cynomolgus Factor P [1]): 14.4 nM
MAC Deposition, 20% Serum EC50 (Cynomolgus Factor P [1]): 8.51 nM
Hemolytic assay IC50 (nM), 10% serum (Human Factor P [2]): 12.4 nM
MAC Deposition, 20% Serum EC50 (Human Factor P [2]): 5.85 nM
Kd (Human Factor P [3]): 0.0008 nM
Kd (Human Factor P [4]): 0.005 nM
koff (Human Factor P [4]): 1.29e-05 s⁻¹
kon (Human Factor P [4]): 2.72e+06 M⁻¹ s⁻¹

B5: NVS965 (Fab, V domains shown)
VH: B1 VH with S30N, Y103S
VL: B1 VL
notes: Disulfide-bridged Fab; also called Fab NVS965
Hemolytic assay IC50 (nM), 10% serum (Cynomolgus Factor P [1]): 13.2 nM
MAC Deposition, 20% Serum EC50 (Cynomolgus Factor P [1]): 22.2 nM
Zymosan-C3b IC50 (nM), 10% serum (Cynomolgus Factor P [1]): 6.36 nM
Hemolytic assay IC50 (nM), 10% serum (Human Factor P [2]): 7.53 nM
Inhibition of C3a generation, 20% human serum (Human Factor P [2]): 31.3 nM
MAC Deposition, 20% Serum EC50 (Human Factor P [2]): 17.3 nM
Zymosan-C3b IC50 (nM), 10% serum (Human Factor P [2]): 1.54 nM
Kd (Cynomolgus Factor P [5]): 0.014 nM
Kd (Human Factor P [3]): 0.036 nM
Kd (Cynomolgus Factor P [6]): 0.028 nM
koff (Cynomolgus Factor P [6]): 6.22e-05 s⁻¹
kon (Cynomolgus Factor P [6]): 2.24e+06 M⁻¹ s⁻¹
Kd (Human Factor P [4]): 0.016 nM
koff (Human Factor P [4]): 4.1e-05 s⁻¹
kon (Human Factor P [4]): 2.65e+06 M⁻¹ s⁻¹

B7: NVS806 (Fab, V domains shown)
VH: B1 VH with Y103V
VL: B1 VL with V3E, K16Q, M80E, A88Q, D91T, S93G, P94N, R95N, T96Y, E97L
Hemolytic assay IC50 (nM), 10% serum (Cynomolgus Factor P [1]): 13.9 nM
MAC Deposition, 20% Serum EC50 (Cynomolgus Factor P [1]): 6.51 nM
Hemolytic assay IC50 (nM), 10% serum (Human Factor P [2]): 10.1 nM
MAC Deposition, 20% Serum EC50 (Human Factor P [2]): 5.74 nM
Kd (Human Factor P [3]): 0.018 nM
Kd (Human Factor P [4]): 0.052 nM
koff (Human Factor P [4]): 2.24e-05 s⁻¹
kon (Human Factor P [4]): 434000 M⁻¹ s⁻¹

Continued, in another order:

MAC Deposition, 20% Serum EC50 (Cynomolgus Factor P [1]): 7.86 nM
Zymosan-C3b IC50 (nM), 10% serum (Cynomolgus Factor P [1]): 3.12 nM
MAC Deposition, 20% Serum EC50 (Human Factor P [2]): 9.96 nM
Zymosan-C3b IC50 (nM), 10% serum (Human Factor P [2]): 1.15 nM
Kd (Cynomolgus Factor P [5]): 0.189 nM
Kd (Human Factor P [3]): 0.189 nM
Kd (Cynomolgus Factor P [6]): 0.234 nM
koff (Cynomolgus Factor P [6]): 8.7e-05 s⁻¹
kon (Cynomolgus Factor P [6]): 372000 M⁻¹ s⁻¹
Kd (Human Factor P [4]): 0.225 nM
koff (Human Factor P [4]): 0.000113 s⁻¹
kon (Human Factor P [4]): 504000 M⁻¹ s⁻¹
B2: NVS962-S31A (Fab, V domains shown)
VH: B1 VH with S30N, S31A, Y103S
VL: B1 VL with V3E, K16Q, M80E, A88Q, D91T, S93G, P94N, R95N, T96Y, E97L
notes: NVS962 with heavy chain serine 31 replaced with alanine
Hemolytic assay IC50 (nM), 10% serum (Cynomolgus Factor P [1]): 11.6 nM
Hemolytic assay IC50 (nM), 10% serum (Human Factor P [2]): 12.8 nM

MAC Deposition, 20% Serum EC50 (Cynomolgus Factor P [1]): 20.9 nM
Zymosan-C3b IC50 (nM), 10% serum (Cynomolgus Factor P [1]): 1.62 nM
MAC Deposition, 20% Serum EC50 (Human Factor P [2]): 23.1 nM
Zymosan-C3b IC50 (nM), 10% serum (Human Factor P [2]): 0.64 nM
Kd (Cynomolgus Factor P [5]): 0.93 nM
Kd (Human Factor P [3]): 1.06 nM
Kd (Cynomolgus Factor P [6]): 0.475 nM
koff (Cynomolgus Factor P [6]): 0.000264 s⁻¹
kon (Cynomolgus Factor P [6]): 555000 M⁻¹ s⁻¹
Kd (Human Factor P [4]): 0.496 nM
koff (Human Factor P [4]): 0.000311 s⁻¹
kon (Human Factor P [4]): 627000 M⁻¹ s⁻¹
B6: NVS962-Q (Fab, V domains shown)
VH: B1 VH with S30Q, Y103S
VL: B1 VL with V3E, K16Q, M80E, A88Q, D91T, S93G, P94N, R95N, T96Y, E97L
notes: NVS962 with heavy chain N30 replaced with glutamine (deamidation site removed)
Hemolytic assay IC50 (nM), 10% serum (Cynomolgus Factor P [1]): 14.7 nM
Hemolytic assay IC50 (nM), 10% serum (Human Factor P [2]): 15.3 nM
